# Assay results as given in patent US11447550B2, “Peptides for molecular detection of PD-L1” (THE CURATORS OF THE UNIVERSITY OF MISSOURI, priority 2016, dated 2022).
# Ends that are not written are not given here.
# Legend:
# PD-L1 [1] = molecular target: T1, PD-L1 (Homo sapiens, UniProt Q9NZQ7); assay: Peptide library study of stability and PD-L1 affinity; assay type: binding; conditions: library of synthesized peptides
# Experimental: Initial research was focuses on understanding the interaction of PD-1 and PD-L1 based on X-ray crystal structure data (FIG. 14) with the goal of identifying the peptide sequence that is selectively mediating the interactions. After the crystal structure of each protein was identified, a proprietary Fortran program was used to analyze which amino acid sequences interact most closely between the two proteins. Number of occurrences for each sequence was calculated and used to identify the peptide sequences used in this study. […] As a first step, a library of peptides was synthesized and the stability and PD-L1 affinity was studied. […] Data related to anti-PD-L1 and mock peptide was used to synthesize peptides for this study. The binding sequences of each peptide were further modified to incorporate either biotin or fluorophore for antigen detection, and to increase solubility of the peptide.
# PD-L1 [2] = molecular target: T1, PD-L1; assay: Flow cytometry using cultured cell lines with Cy5-conjugated peptide; assay type: cell-based; parameters: Seven PD-L1 expressing NSCLC patient tissues were obtained from the MU OneHealth tissue bank; tissue MU OneHealth tissue bank; U.S. Biomax (TMA) LC1923; host or cells: FFPE placenta, seven NSCLC patient tissues, 192-case lung cancer tissue microarray, four Hodgkin's lymphoma cases; conditions: for MFI relative to MDA-MB-231: all lower peptide concentrations, FIG. 6A
# Experimental: Cell lines MDA-MB-231, Y79, and MCF-7 were purchased from ATCC, thawed, and grown in culture to confluency. When confluent, adherent cells were removed from the flask by scraping gently with a cell scraper and media removed using centrifugation. Suspension cells were pipetted from the flask and centrifuged to remove media. Cell lines were resuspended in Eppendorf tubes in 100 μL PBS at a concentration of 5×10^6 cells per mL. Cy5-conjugated peptide solution was then added to the tubes to make the desired concentration of peptide in 200 μL. Eppendorf tubes were then placed in the incubator for 1 hour and vortexed at the 30-minute mark. After 1 hour, cell lines were analyzed on a BD FACS Canto II, a 3-laser, 8-color flow cytometer (San Jose, Calif.) using Diva 8.0 acquisition and analysis software (San Jose, Calif.). The cells of interest were gated using Forward and Side scatter (FSC/SSC) and positive antibody expression. 10,000 singlet events were collected for each specimen.
# RK-10-Cy5 was then investigated for PD-L1 specificity using flow cytometry in cultured cell lines and patient tissues. […] To set our conditions for flow cytometry, titrations of PD-L1 peptide using all three cell lines were first examined. In each of the samples double-positives were selected by analyzing expression of both cytokeratin (FITC channel) and PD-L1 (Cy5 channel) (FIG. 15). […] Samples containing 0.1 and 0.05 mg/mL concentrations were deemed to have fluorescence intensities too high for accurate analysis for each cell line. Y79 and MCF7 both have a much lower PD-L1 expression than MDA-MB-231, which correlates with expression seen using Cy5 conjugated peptide and comparing the cell lines with flow cytometry. […] The MCF7 sample containing 0.005 mg/ml was much higher than anticipated due to this sample being treated twice with peptide. 0.005 mg/mL was selected as optimal concentration based on these comparisons, and all subsequent flow cytometry experiments were performed using this concentration. Lung cancer cell lines A549 (low PD-L1) and HCC827 (high PD-L1) were investigated for PD-L1 expression using both phycoerythrin-conjugated cd274 and RK-10-Cy5 (FIG. 6B). Cell lines were cultured as before and treated with either antibody or peptide in buffer. […] The antibody associated fluorescence was higher than the peptide associated fluorescence in both samples, which is attributed to differences in titrating peptide and antibody.
# PD-L1 [3] = molecular target: T1, PD-L1; assay: Flow cytometry using patient tissues and whole blood; assay type: cell-based; parameters: Seven PD-L1 expressing NSCLC patient tissues were obtained from the MU OneHealth tissue bank; tissue MU OneHealth tissue bank; U.S. Biomax (TMA) LC1923; host or cells: FFPE placenta, seven NSCLC patient tissues, 192-case lung cancer tissue microarray, four Hodgkin's lymphoma cases
# Experimental: Cases were evaluated using flow cytometry for suspected hematopoietic neoplasms. A portion of each fresh specimen was collected into RPMI. […] Any erythrocytes within the specimens were lysed with BD PharmLyse (San Jose, Calif.) and the specimens were washed with BD Staining Buffer with BSA (San Jose, Calif.). Each sample was evaluated using BD FACSCanto II, a three laser, eight-color flow cytometer (San Jose, Calif.) within 24 hours of collection. 50,000 events were collected for each sample. The expression data were analyzed using BD FACSDiva software, version 8.0 (San Jose, Calif.). Cases diagnosed as non-hematopoietic tumors were further subjected to evaluation with PDL-1 peptide if material was available combined with CK to identify the epithelial component. The cell suspensions were stained with 10 μl of BD Cytokeratin FITC (clone CAM5.2), 20 μl of Cy5-conjugated peptide solution, and 10 μl of BD Pharmingen CD274 PE (clone MIH1), incubated in the dark for 30 minutes, washed with BD Stain Buffer with BSA, and reconstituted to 500 μl with Stain Buffer with BSA in […] polystyrene tubes for analysis. The specimens were analyzed on the FACS Canto II using the same panel template, gating strategy, and collection events as the cell line specimens.
# PD-L1 expression in patient tissues was analyzed using RK-10-Cy5 and compared to expression in MDA-MB-231 cells and a negative control of normal blood (FIG. 7A). The MFI of the MDA-MB-231 cells was 9,448, while the whole blood gave an MFI of −123. Squamous cell carcinoma and metastatic melanoma samples were investigated for PD-L1 expression using the previously mentioned MFIs as high and negative, respectively. The squamous cell carcinoma was shown as having an MFI of 107,808, while the melanoma sample gave an MFI of 1,250. […] Since […] is consistent with circulating tumor cells, it was thought that RK-10-Cy5 peptide could be used to detect CTCs. To see whether detection of low cell counts was possible, whole blood samples were spiked with MDA-MB-231 cells. MDA-MB-231 were diluted with whole blood, then treated with RK-10-Cy5 and cytokeratin before staining. These samples were also treated with a phycoerythrin-conjugated antibody (cd274) against PD-L1 to further verify PD-L1 detection. Positive signals were detected of cytokeratin and PD-L1 expression at low counts of ˜15 cells in 1 mL whole blood sample using both the peptide and the antibody (FIG. 7B).
# T1 sequence (Q9NZQ7 19-290): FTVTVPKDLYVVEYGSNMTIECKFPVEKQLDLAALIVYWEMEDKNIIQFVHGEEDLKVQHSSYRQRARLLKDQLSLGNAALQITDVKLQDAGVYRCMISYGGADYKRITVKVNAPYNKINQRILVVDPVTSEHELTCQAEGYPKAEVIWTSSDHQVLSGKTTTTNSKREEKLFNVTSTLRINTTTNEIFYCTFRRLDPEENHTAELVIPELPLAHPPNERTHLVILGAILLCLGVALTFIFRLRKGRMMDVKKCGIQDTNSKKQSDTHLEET
substance,measurement,setting,value
Cy5-GSGSGSTYLCGAISLAPKAQIKESL [RK-10-Cy5],PD-L1 affinity,PD-L1 [1],high affinity
same,MFI relative to MDA-MB-231,PD-L1 [2]; MCF7 cells (no meaningful PD-L1 expression),close to tenfold lower
same,mean fluorescence intensity (MFI),"PD-L1 [2]; MDA-MB-231 cells (very high PD-L1), Cy5 channel, 0.005 mg/mL peptide, FIG. 7A","9,448"
same,MFI relative to MDA-MB-231,PD-L1 [2]; Y79 cells (no meaningful PD-L1 expression),close to tenfold lower
same,"signal associated with PD-L1 expression, HCC827 versus A549","PD-L1 [2]; lung cancer lines HCC827 (high PD-L1) vs A549 (low PD-L1), FIG. 6B",much higher signal
same,mean fluorescence intensity (MFI),PD-L1 [3]; metastatic melanoma patient sample,"1,250"
same,mean fluorescence intensity (MFI),"PD-L1 [3]; normal whole blood (negative control), FIG. 7A",−123
same,mean fluorescence intensity (MFI),PD-L1 [3]; squamous cell carcinoma patient sample,"107,808"
same,low cell count at which positive cytokeratin and PD-L1 signals were detected,"PD-L1 [3]; whole blood spiked with MDA-MB-231 cells, FIG. 7B",~15 cells in 1 mL whole blood
